Assay [1] concerns the target T1, human VEGF (human, UniProt P15692-4 27-191).
T1 construct: Bought recombinant protein; also called hVEGF; human VEGF-A
Nature of the assay: ELISA and BIAcore.

In assay [2] the target is T2, mouse VEGF (mouse, UniProt Q00731-2 27-190).
T2 construct: Bought recombinant protein; also called mVEGF-A; mouse VEGF-A
T2 sequence (looked up): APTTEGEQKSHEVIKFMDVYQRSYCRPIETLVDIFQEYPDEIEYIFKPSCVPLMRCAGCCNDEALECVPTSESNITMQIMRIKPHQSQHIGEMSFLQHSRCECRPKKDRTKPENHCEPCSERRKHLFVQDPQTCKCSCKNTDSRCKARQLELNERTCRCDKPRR
The assay is described as follows: ELISA and BIAcore.

Assay [3] deals with T1, human VEGF. The assay is described as follows: SPR (BIAcore X100), VEGF on CM5 chip, IgG injected, 1:1 Langmuir. The source says: Meanwhile, to measure the affinity, human VEGF and mouse VEGF were coupled to carboxymethylated dextran biosensor chips (CM5, GE) according to the manufacturer's instructions.
The association and dissociation rates were expressed by the association and dissociation sensorgram, and calculated using a simple 1:1 Langmuir binding model (BIAcore X100 evaluation software, ver. 2.0).

In assay [4] the target is T2, mouse VEGF. Nature of the assay: ELISA, mouse VEGF coated, anti-human Fc-HRP, absorbance 450 nm [a].
The next assay has as its target T3, human VEGF-B (human, UniProt P49765-2 22-188, limits assumed).
T3 construct: also called hVEGF-B
T3 sequence (looked up): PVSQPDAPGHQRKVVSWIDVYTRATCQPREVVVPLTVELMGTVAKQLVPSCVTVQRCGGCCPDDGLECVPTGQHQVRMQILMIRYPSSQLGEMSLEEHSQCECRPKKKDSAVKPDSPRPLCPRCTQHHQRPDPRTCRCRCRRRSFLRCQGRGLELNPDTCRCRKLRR
The assay is described as follows: ELISA, 0.2 ug/ml protein coated, anti-human IgG-Fab-HRP, absorbance 650 nm; antibody concentration not shown. As for the experimental part: (§1) 0.2 μg/ml each of the respective proteins (hVEGF-A, mVEGF-A, hVEGF-B, hVEGF-C, hVEGF-D and PlGF) (R&D systems) were coated to the wells of ELISA plate, respectively. After blocking them with PBS containing 3% BSA and 0.05% Tween 20 for 30 min at 37° C., antibody clone proteins of increasing concentrations were incubated at 37° C. for 2 hr. Then, the wells were washed with PBS containing 3% BSA and 0.05% Tween 20 for 3 times, and anti-human IgG-Fab-HRP conjugate (Jackson Immunoresearch, USA) was added thereto and incubated for 1 hr at room temperature. Then they were washed with PBS containing 3% BSA and 0.05% Tween 20 for 3 times, and developed using TMB, and absorbance was measured at 650 nm.

The target of another assay is T4, human VEGF-C (human, UniProt P49767 103-227, limits assumed).
T4 construct: also called hVEGF-C
T4 sequence (looked up): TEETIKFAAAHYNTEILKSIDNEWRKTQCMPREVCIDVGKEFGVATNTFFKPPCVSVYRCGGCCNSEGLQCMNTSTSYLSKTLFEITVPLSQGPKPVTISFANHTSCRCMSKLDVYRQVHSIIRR
The description is as above. As for the experimental part: as §1

The next assay deals with T5, human VEGF-D (human, UniProt O43915 93-201, limits assumed).
T5 construct: also called hVEGF-D
T5 sequence (looked up): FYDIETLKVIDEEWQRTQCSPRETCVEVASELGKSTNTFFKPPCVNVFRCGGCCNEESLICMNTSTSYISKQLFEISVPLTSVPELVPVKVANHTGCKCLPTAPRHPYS
The assay is described as above. As to the method: as §1

The target of assay [5] is T6, human placental growth factor (human, UniProt P49763-2 21-149, limits assumed).
T6 construct: also called PlGF; PIGF
T6 sequence (looked up): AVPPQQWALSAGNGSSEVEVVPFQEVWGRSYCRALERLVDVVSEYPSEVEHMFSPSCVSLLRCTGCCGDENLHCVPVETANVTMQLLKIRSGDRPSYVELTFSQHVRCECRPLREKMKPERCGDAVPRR
The description is as above. As to the method: as §1

The target of assay [6] is T1, human VEGF. Nature of the assay: competition ELISA: human VEGF coated, 9 nM KDR ECD IgG-Fc (VEGFR2) added together with the antibody, bound receptor-Fc detected, absorbance 405 nm. As to the method:
0.5 μg/ml of human VEGF was coated to 96-well ELISA plate and blocked with PBS solution containing 3% BSA and 0.05% Tween 20.

Substitutions are numbered along the chain they refer to.

B1: HF2-1 (antibody, V domains shown)
VH: EVQLVESGGGLVQPGGSLRLSCAASNFVFRSHGMQWVRQAPGKGLEYVAGISSDGSWTGYGAAVEGRFTISRDDSKNTAYLQMNSLRAEDTAVYYCARDFSTGYGADSIDAWGQGTLVTVSS
VL: DIQMTQSPSSLSASVGDRVTITCSGGSDSAYGYGWYQQKPGKAPKTLIYWDDKRPSGVPSRFSGSRSGTDFTLTISSLQPEDFATYYCGAWEYSGGVGIFGQGTKVEIK
notes: also called HF-1
Take B1: the “fold affinity over mother clone F” value in the assay with human VEGF [1] and in the assay with mouse VEGF [2] was ≥ 10 times each time. Further, in the assay with human VEGF [3], the Kd is < 1 pM. In the assay with human VEGF [3], the koff was < 1e-06 s⁻¹. The on-rate constant (kon) with human VEGF [3] is 2.5e+06 M⁻¹ s⁻¹. Also, the “EC50 (read off the curve)” value with mouse VEGF [4] was ~0.08 µg/mL. Also, the binding result (with human VEGF-B; with human VEGF-C; with human VEGF-D; in assay [5]) was “no binding” in each case. In addition, in the assay with human VEGF [6], the “IC50 (read off the curve)” value is ~5000 pM.

B2: HF2-23 (antibody, V domains shown)
VH: B1 VH with N26G, V28R, F29I, T58F, G59S, Y60S, G61A
VL: B1 VL with S29L, A30L, Y31L
With B2, the “fold affinity over mother clone F” value with human VEGF [1] and with mouse VEGF [2] was ≥ 10 times throughout.

B3: HF2-24 (antibody, V domains shown)
VH: B1 VH with N26R, V28N, F29M, T58V, G59K, Y60V, G61A
VL: B1 VL with D28Q, S29E, A30S, Y31L
Regarding B3, the “fold affinity over mother clone F” value in the assay with human VEGF [1] and with mouse VEGF [2] was ≥ 10 times in each case.

B4: HF2-20 (antibody, V domains shown)
VH: B1 VH with N26Y, F27M, V28E, F29Y, T58S, G59R, Y60V, G61D
VL: B1 VL
With B4, the “fold affinity over mother clone F” value with human VEGF [1] and in the assay with mouse VEGF [2] was ≥ 10 times in each case.

B5: HF2-22 (antibody, V domains shown)
VH: B1 VH with N26G, V28R, F29I, T58F, G59R, Y60V, G61A
VL: B1 VL with D28T, S29A, A30G, Y31V
In the case of B5, the “fold affinity over mother clone F” value with human VEGF [1] and in the assay with mouse VEGF [2] was ≥ 10 times throughout.

B6: HF2-2 (antibody, V domains shown)
VH: B1 VH with N26R, V28N, F29M, T58E, G59R, Y60V
VL: B1 VL
As to B6, the “fold affinity over mother clone F” value with human VEGF [1] was ≥ 10 times. Besides, in the assay with mouse VEGF [2], the “fold affinity over mother clone F” value is ≥ 10 times. Moreover, in the assay with human VEGF [3], the Kd is < 1 pM, the koff was < 1e-06 s⁻¹ and the kon was found to be 1.1e+06 M⁻¹ s⁻¹.

B7: HF2-3 (antibody, V domains shown)
VH: B1 VH with N26H, V28N, F29M, T58F, G59R, Y60V, G61A
VL: B1 VL with V58A
notes: also called HF-3
B7: in the assay with human VEGF [1], the “fold affinity over mother clone F” value was ≥ 10 times. Moreover, the “fold affinity over mother clone F” value with mouse VEGF [2] is ≥ 10 times. In the assay with human VEGF [3], the Kd is < 1 pM, the koff was < 1e-06 s⁻¹ and the kon was 1.3e+06 M⁻¹ s⁻¹.

B8: HF2-18 (antibody, V domains shown)
VH: B1 VH with N26Y, F27W, V28A, T58F, G59S, Y60S, G61A
VL: B1 VL with D28I, S29E, A30P, Y31L
Consider B8, for which the “fold affinity over mother clone F” value in the assay with human VEGF [1] and with mouse VEGF [2] was ≥ 10 times in each case.

B9: HF2-16 (antibody, V domains shown)
VH: B1 VH with N26G, V28R, F29I, T58V, G59K, Y60V, G61A
VL: B1 VL with D28I, S29E, A30P, Y31L
Take B9: the “fold affinity over mother clone F” value with human VEGF [1] and in the assay with mouse VEGF [2] was ≥ 10 times in each case.

B10: HF2-7 (antibody, V domains shown)
VH: B1 VH with N26Q, V28W, F29I, T58F, G59R, Y60V, G61A
VL: B1 VL with D28M, S29E, A30P, Y31L
On to B10, for which the “fold affinity over mother clone F” value in the assay with human VEGF [1] was ≥ 10 times. In addition, in the assay with mouse VEGF [2], the “fold affinity over mother clone F” value was ≥ 10 times. In the assay with human VEGF [3], this molecule had a Kd of 16 pM, a koff of 2.7e-05 s⁻¹ and a kon of 1.6e+06 M⁻¹ s⁻¹.

B11: HF2-17 (antibody, V domains shown)
VH: B1 VH with N26G, V28M, F29I, T58R, G59R, Y60H, G61S
VL: B1 VL with D28I, S29E, A30P, Y31L
For B11, the “fold affinity over mother clone F” value in the assay with human VEGF [1] and with mouse VEGF [2] was ≥ 10 times in each case.

B12: HF2-14 (antibody, V domains shown)
VH: B1 VH with N26H, F27S, V28S, F29I, T58L, G59R, Y60Q, G61D
VL: B1 VL
On to B12, for which the “fold affinity over mother clone F” value in the assay with human VEGF [1] was ≥ 10 times. In addition, in the assay with mouse VEGF [2], the “fold affinity over mother clone F” value is ≥ 10 times. In the assay with human VEGF [3], the Kd was < 1 pM, the koff was < 1e-06 s⁻¹ and the association rate constant (kon) stood at 1.3e+06 M⁻¹ s⁻¹.

B13: HF2-10 (antibody, V domains shown)
VH: B1 VH with N26F, F27Q, V28Y, T58F, G59R, Y60V, G61A
VL: B1 VL with D28M, S29E, A30P, Y31L
Regarding B13, the “fold affinity over mother clone F” value in the assay with human VEGF [1] was ≥ 10 times. Also, the “fold affinity over mother clone F” value with mouse VEGF [2] is ≥ 10 times. In the assay with human VEGF [3], the Kd was < 1 pM, the koff is < 1e-06 s⁻¹ and the kon turned out to be 1.6e+06 M⁻¹ s⁻¹.

B14: HF2-12 (antibody, V domains shown)
VH: B1 VH with N26Y, F27S, V28E, F29V, T58F, G59R, Y60V, G61A
VL: B1 VL with D28M, S29E, A30P, Y31L
B14: the “fold affinity over mother clone F” value with human VEGF [1] and with mouse VEGF [2] was ≥ 10 times in each case.

B15: HF2-21 (antibody, V domains shown)
VH: B1 VH with N26F, F27Q, V28Y, T58Y, G59R, Y60V, G61Q
VL: B1 VL with D28M, S29E, A30P, Y31L
As to B15, the “fold affinity over mother clone F” value in the assay with human VEGF [1] and with mouse VEGF [2] was ≥ 10 times each time.

B16: HF2-6 (antibody, V domains shown)
VH: B1 VH with N26R, V28L, F29L, T58F, G59R, Y60V, G61A
VL: B1 VL with D28M, S29E, A30P, Y31L
As for B16, the “fold affinity over mother clone F” value in the assay with human VEGF [1] is ≥ 10 times. In the assay with mouse VEGF [2], the “fold affinity over mother clone F” value is ≥ 10 times. Moreover, in the assay with human VEGF [3], the Kd was < 1 pM, the koff is < 1e-06 s⁻¹ and the kon turned out to be 1.6e+06 M⁻¹ s⁻¹.

B17: HF2-15 (antibody, V domains shown)
VH: B1 VH with N26G, F29V, T58K, G59A, Y60T, G61A
VL: B1 VL with D28Q, S29E, A30S, Y31L
With B17, the “fold affinity over mother clone F” value in the assay with human VEGF [1] and with mouse VEGF [2] was ≥ 10 times in each case.

B18: HF2-13 (antibody, V domains shown)
VH: B1 VH with N26G, V28L, F29V, T58Q, G59R, Y60V, G61N
VL: B1 VL with S29L, A30L, Y31L
On to B18, for which, in the assay with human VEGF [1], the “fold affinity over mother clone F” value was ≥ 10 times. The “fold affinity over mother clone F” value in the assay with mouse VEGF [2] was ≥ 10 times. Also, in the assay with human VEGF [3], the Kd is ≤ 9 pM, the koff is ≤ 1e-05 s⁻¹ and the kon amounted to 1.4e+06 M⁻¹ s⁻¹.

The values above are taken from patent US20160122426A1 (DONG A SOCIO, published 2016).
